Assay results as given in patent US11655307B2, “Anti-doublecortin-like kinase 1 antibodies and methods of use” (The Board of Regents of the University of Oklahoma, priority 2017, dated 2023).
Entries after “also recorded” stand apart in the source; their conditions may differ.

Tests used:
[1] = test system: Caki-2 cells overexpressing DCLK1; assay: Proliferation/drug resistance assay (MTT), DCLK1-overexpressing cells; format: cell-based, human; settings: increasing drug concentrations; FIG. 16-17
Text: This gBlock also contains a part of human DCLK1 isoform 1 sequence shared with isoform 2, with the addition of the unique DCLK1 isoform 2 C-terminal sequence (NCBI Reference Sequence: XM_005266592.2). The vector containing DCLK1 isoform 1 and the gBlock were digested with EcoRI and Scat Both digested vector and gBlock fragment were gel purified and DCLK1 isoform 2 was constructed by ligating the digested vector with the synthetic DNA fragment. The ligated cDNA product was confirmed by automatic sequencing. […] RCC cell line Caki-2 was infected with Lentivirus containing human DCLK1 cDNA sequence to overexpress DCLK1 Isoform 2/long-α (caki2-dsRed-DCLK1) or red fluorescent protein (RFP) cDNA as control (caki2-dsRed) and selected to 100% expression with puromycin.
Cells (5000/well) were seeded into a 96-well tissue culture plate in quadruplicate. […] 48 or 72 h after incubation, 10 μL of MTT (RND Systems) was added to each well and cells were incubated at 37° C. for 4 h. […] In order to fully dissolve the precipitated MTT crystals, the plate was placed on a shaker at low speed for 1 min and a microplate reader was used to read the OD570 for each well.
The high level of expression of vascular endothelial growth factor (VEGF) and its receptors in RCC supports its highly vascular nature making VEGF and its receptors therapeutic targets. […] Given the tight relationship between sternness and the response to targeted therapies and its importance in patient survival, we further investigated DCLK1's role in this process. Caki-2 cells overexpressing DCLK1 were seeded into 96-well plates, allowed to attach overnight, and then treated with increasing concentrations of sunitinib or sorafenib. Relative cell viability was then evaluated by MTT assay.
The intracellular serine/threonine kinase mTOR is involved in a wide range of pathways and plays an essential role in cellular metabolism and cancer progression.

[2] = test system: AsPC-1 pancreatic cancer cells; assay: In vitro PBMC-killing assay (Caspase-3/7 Glo), pancreatic cancer cells; format: cell-based; settings: 48 h antibody pretreatment, then 72 h co-culture with human PBMC; FIG. 24B
Description: (§1) To further assess the functional relevance of these findings we seeded ACHN renal and AsPC-1 pancreatic cancer cells into 96 wells and subjected them to antibody-dependent cell-mediated cytotoxicity assay. Briefly, 10^4 cancer cells were seeded into each well after 48 hours pretreatment with either isotype control or CBT-15 monoclonal antibody. Human peripheral blood […] were then seeded into each well at 10^5 cells per well and co-cultured for 72 h. After 72 h Caspase-3/7 Glo assay was performed to assess apoptosis.

[3] = target: T1, DCLK1 isoform 4 purified protein (Homo sapiens, UniProt O15075); assay: Western blotting against purified DCLK1 protein; format: binding; settings: FIG. 1
T1 sequence (O15075 1-433 isoform O15075-4): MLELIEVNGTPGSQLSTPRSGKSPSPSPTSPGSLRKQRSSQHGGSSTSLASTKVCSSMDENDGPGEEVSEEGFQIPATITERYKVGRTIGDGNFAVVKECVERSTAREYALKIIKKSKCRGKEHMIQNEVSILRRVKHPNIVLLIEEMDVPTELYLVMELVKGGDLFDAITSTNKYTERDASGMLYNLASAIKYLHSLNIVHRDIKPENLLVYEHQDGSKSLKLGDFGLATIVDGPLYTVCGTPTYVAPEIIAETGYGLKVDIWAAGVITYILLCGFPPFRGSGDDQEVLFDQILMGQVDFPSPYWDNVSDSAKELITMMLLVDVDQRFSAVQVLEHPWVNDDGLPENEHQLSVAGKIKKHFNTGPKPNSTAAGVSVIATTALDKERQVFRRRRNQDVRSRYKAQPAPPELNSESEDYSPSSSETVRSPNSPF
Description: Lysates from ACHN or CAKI2 cells were subjected to Western blot analysis. The concentration of total proteins was determined by BCA protein assay (Pierce, Rockford, Ill.). 40 μg of protein lysates were size separated on a 4%-20% SDS polyacrylamide gel and transferred onto a PVDF membrane. The membrane was blocked in 1% caseine for 30 minutes and probed with primary antibody α-DCLK1 (ABCAM, ab31704), HIF-1α (ABCAM, ab2185), Vimentin (Santa Cruz, S.C.-7557), ALDH1A1 (ABCAM, ab52492), β-Actin (ABCAM, ab8226) overnight at 4° C. The membrane was then washed 3 times with TBST and probed with species-appropriate secondary antibody (cw800-conjugated) for 30 mins at room temperature protected from light. Finally, proteins were detected using a LICOR Odyssey Infrared Imager and density quantification was performed in Image Studio Lite (LICOR) where appropriate.
The resulting monoclonal antibodies produced from this screening process included an Immunoglobulin A species (CBT-15A) and an Immunoglobulin G213 species (CBT-15G). Following purification of the resulting antibodies, their affinity for DCLK1 was confirmed by Western blotting against DCLK1 isoform 4 purified protein (FIG. 1). […] The ability of these antibodies to bind extracellular DCLK1 was further apparent in FACS sorting experiments. […]

[4] = test system: pancreatic cancer SW1990 tumor xenograft; assay: SW1990 xenograft tumor study; format: in vivo, mice; settings: 25 mg/kg biweekly
Description: 0.5×10^6 cells were injected into the flanks of 8 week-old athymic nude mice and the resulting tumors were allowed to grow to an average volume 100 mm^3. Upon reaching this volume we began delivering CBT-15 or isotype control mAB at 25 mg/kg biweekly. Tumor volume measurements were taken approximately every other day. At the end of 4 weeks from the start of injections animals were culled and tumors were excised, measured, and weighed.

ACHN cells = assay: In vitro PBMC-killing assay (Caspase-3/7 Glo), renal cancer cells; format: cell-based; settings: antibody pretreatment, then 72 h co-culture with human PBMC; FIG. 24A
Description: ACHN cells were seeded into a 96-well plate at 5×10^4 cells per well and allowed to attach overnight at 37° C. CBT-15 mAB or isotype control mAB were added to the ACHN wells at concentrations of 100 μg/mL in quadruplicate and incubated at 37° C. for 72 h. After mAB treatment, the media was replaced and 1.25×10^5 primary human PBMC cells (ATCC) were co-incubated with the ACHN cells for 72 h. Finally, luminescent CaspaseGlo® 3/7 activity (Promega) assay was performed according to the manufacturer's protocol as a surrogate measure of apoptosis.
as §1

## CO[C@H]1C[C@@H]2CC[C@@H](C)[C@@](O)(O2)C(=O)C(=O)N2CCCC[C@H]2C(=O)O[C@H]([C@H](C)C[C@@H]2CC[C@@H](OC(=O)C(C)(CO)CO)[C@H](OC)C2)CC(=O)[C@H](C)/C=C(\C)[C@@H](O)[C@@H](OC)C(=O)[C@H](C)C[C@H](C)/C=C/C=C/C=C/1C [temsirolimus]
[1]
  sensitivity of DCLK1-overexpressing cells to the drug compared to dsRed vector control cells (relative cell viability, MTT): significantly decreases sensitivity

## CNC(=O)c1cc(Oc2ccc(NC(=O)Nc3ccc(Cl)c(C(F)(F)F)c3)cc2)ccn1 [sorafenib]
[1]
  sensitivity of DCLK1-overexpressing cells to the drug compared to dsRed vector control cells (relative cell viability, MTT): did not elicit significant resistance; also recorded: not resistant

## CO[C@H]1C[C@@H]2CC[C@@H](C)[C@@](O)(O2)C(=O)C(=O)N2CCCC[C@H]2C(=O)O[C@H]([C@H](C)C[C@@H]2CC[C@@H](OCCO)[C@H](OC)C2)CC(=O)[C@H](C)/C=C(\C)[C@@H](O)[C@@H](OC)C(=O)[C@H](C)C[C@H](C)/C=C/C=C/C=C/1C [everolimus]
[1]
  sensitivity of DCLK1-overexpressing cells to the drug compared to dsRed vector control cells (relative cell viability, MTT): significantly decreases sensitivity

B1: CBT-15G: Anti-DCLK1 mouse monoclonal antibody, Immunoglobulin G213 species, raised against immunogen no. 8; VH SEQ ID NO:24, VL SEQ ID NO:26 (antibody, V domains shown)
VH: EVQLQQSGTALARPGASVKMSCKASGYSFTSYWMHWVKQRPGQGLEWIGAIYPGKSDTSYNQKFKGKAKLTAVTSASTAYMELSSLTNEDSAVYYCTRYGKGAMDYWGQGTSVTVSS
VL: DIVLTQSHKFMSTSVGDRVTITCKASQDVNTAVAWYQKKPGQSPKLLIYWASTRLTGVPDRFTGSGSGTDYTLTISSVQAEDLALYYCQQHYSTPYTFGGGTKLEIK
modifications: HC variable AA sequence of CBT-15G; LC variable AA sequence of CBT-15G
[2]
  immune cell mediated cell killing, Caspase-3/7 activity relative to isotype control: significantly increased; also recorded: increase
[3]
  affinity for DCLK1 by Western blot (detection of purified DCLK1 protein): confirmed; also recorded: detect
[4]; end of treatment, FIG. 29, 32
  excised tumor volume vs isotype mAB: significant decrease
[4]; end of treatment, FIG. 30, 33
  excised tumor weight vs isotype mAB: decrease
[4]; athymic nude mice, 4 weeks, FIG. 28, 31, 25 mg/kg
  xenograft tumor growth (tumor volume over time) vs isotype mAB: strongly inhibited; also recorded: substantially reduced
ACHN cells
  PBMC mediated apoptosis, Caspase-3/7 activity relative to isotype control: can sensitize
